Laboratory results from patent US20160209425A1, “USE OF DECTIN-1 ACTIVATORS FOR TREATMENT OF LIVER DISORDERS” (NEW YORK UNIVERSITY, priority 2015, published 2016).
Entries after “also recorded” stand apart in the source; their conditions may differ.

Legend:
HSC = test: LPS-stimulated hepatic stellate cells in vitro; assay type: cell-based, mouse; conditions: LPS-stimulated Dectin-1−/− HSC, 24 h; FIG. 14D
Protocol: Murine hepatic NPC were collected as previously (Connolly et al., 2009, The Journal of clinical investigation 119, 3213-3225). Briefly, the portal vein was cannulated and infused with 1% Collagenase IV (Sigma). The liver was then removed, minced, and filtered to obtain single cell suspensions. Hepatocytes were excluded with serial low speed (400 RPM) centrifugation followed by high speed (2000 RPM) centrifugation to isolate the NPC, which were then further enriched over a 40% Optiprep (Sigma) gradient. […] In vitro proliferation was measured using the XTT cell proliferation kit (Roche). PKC activity was measured using a PKC Kinase Activity Assay Kit (Abcam). […]
For Western blotting, total protein was isolated from 75 mg liver tissue by homogenization in RIPA buffer with Complete Protease Inhibitor cocktail (Roche). […] The presence of the co-immunoprecipitated proteins were determined by western blotting.

liver regeneration = test: 70% partial hepatectomy, liver regeneration; assay type: in vivo, mouse; conditions: TCRδ−/− mice, 36 h, FIG. 29C
Excerpt: C57BL/6, TCRδ^−/−, and C57BL/6-Trdc^tm1Mal mice were purchased from Jackson (Bar Harbor, Me.). For selected experiments, CD45.1 mice and C57BL/6 controls were purchased from Taconic (Germantown, N.Y.). Dectin-1^−/− mice were a gift from Gordon Brown (University of Aberdeen). Bone marrow chimeric animals were created by irradiating mice (9 Gy) followed by i.v. bone marrow transfer (10^7 cells) as described by us (Ochi et al., The Journal of clinical investigation 2012; 122:4118-29). The 70% partial hepatectomy procedure entailed ligation and removal of the left and median lobes of the liver in 8-12 week-old mice (Mitchell et al., Nat Protoc 2008; 3:1167-70). The sham operation consisted of a midline laparotomy alone. All animal procedures were approved by NYU School of Medicine IACUC.
In selected experiments, NK1.1^+ cells were depleted using an mAb (PK136, 150 μg, eBiosciences, San Diego, Calif.). […]
Liver tissues were fixed in formaldehyde, embedded in paraffin, and stained for B220 (RA3-6B2; BD), BrdU (Bu20a; Sigma), CCL20 (polyclonal, Abcam), CD45 (30-F11; BD), CD68 (KP1; Abcam), Ki67 (16A8; Biolegend), MPO (Rabbit polyclonal; LS Biosciences, Seattle, Wash.), PCNA (PC10; Biolegend). […] Data was quantified by examining 10 high-power fields (HPFs) per slide. […]

macrophages = test: Macrophages treated in vitro (M-CSF, M-CSF blockade, TNF-a blockade), CD14 and cytokine expression; assay type: cell-based, mouse
Protocol: Murine hepatic NPC were collected as previously (Connolly et al., 2009, The Journal of clinical investigation 119, 3213-3225). Briefly, the portal vein was cannulated and infused with 1% Collagenase IV (Sigma). The liver was then removed, minced, and filtered to obtain single cell suspensions. Hepatocytes were excluded with serial low speed (400 RPM) centrifugation followed by high speed (2000 RPM) centrifugation to isolate the NPC, which were then further enriched over a 40% Optiprep (Sigma) gradient. Human liver NPCs were isolated using a similar protocol as we have described ((Ibrahim et al., 2012, Gastroenterology 143, 1061-1072). Human PBMC were isolated by overlaying whole blood diluted 1:1 in PBS over an equal amount of Ficoll. The cells were then spun at 2100 RPM for 21 min at 20° C. and buffy coat harvested to obtain the PBMC as described ((Rehman et al., 2013, Journal of immunology 190, 4640-4649). Single-cell suspensions of murine splenocytes were isolated by manual disruption of whole spleen and RBC lysis. For HSC isolation, the liver was perfused with 1% Collagenase IV and HSCs were enriched over a 2-layer Nicodenz (Sigma) gradient. HSC were used for experiments on day 14 of culture. […] In vitro proliferation was measured using the XTT cell proliferation kit (Roche). PKC activity was measured using a PKC Kinase Activity Assay Kit (Abcam). […]

LPS-induced endotoxemia = LPS-induced endotoxemia / sepsis in mice; assay type: in vivo, mouse; conditions: WT mice co-administered LPS and M-CSF; FIGS. 7G, 7H
Protocol: C57BL/6 and CD45.1 mice were purchased from Jackson and bred in house. Dectin-1^−/− mice were a gift from Gordon Brown (University of Aberdeen). Mincle^−/− mice were obtained from the MMRRC. Age-matched 6-8 week old mice were used in all experiments. To induce hepatic fibrosis, female mice were treated with thrice weekly injections of TAA (250 mg/kg; Sigma) for 12 weeks as described (Connolly et al., 2009, The Journal of clinical investigation 119, 3213-3225). Alternatively, mice received bi-weekly injections of CCl4 (0.5 ml/kg; Sigma) for the same duration. To induce HCC, male mice were injected i.p. at 2 weeks of age with a single dose of DEN (15 mg/kg, Sigma) followed by bi-weekly injections of CCl4 (0.2 ml/kg) starting at 8 weeks of age ((Dapito et al., 2012, Cancer cell 21, 504-516). Mice were sacrificed 24 weeks later. To induce sepsis, male mice were injected i.p. with a single dose of LPS (15 mg/kg; Sigma). Rectal core body temperature was determined using a MicroTherma 2 temperature probe (Thermoworks). In selected experiments, MyD88 inhibitory peptide (1 mg/kg; Novus), an α-M-CSF neutralizing antibody (2 mg/kg; Clone 5A1, BioXCell), or an α-CD14 neutralizing antibody (4 mg/kg; Clone 4C1, BD Bioscience) was administered immediately preceding each TAA or LPS administration. At the time of sacrifice, blood and liver samples were harvested for analysis. […]

CN(C)CCCn1cc(C2=C(c3c[nH]c4ccccc34)C(=O)NC2=O)c2ccccc21 [PKC inhibition, GF109203X]
M-CSF expression in cell culture supernatant (HSC): abrogated the higher M-CSF expression

B1: recombinant mIL-22: recombinant IL-22 (R&D) (protein, UniProt Q9JJY9 34-179, looked up)
Interleukin-22: LPVNTRCKLEVSNFQQPYIVNRTFMLAKEASLADNNTDVRLIGEKLFRGVSAKDQCYLMKQVLNFTLEDVLLPQSDRFQPYMQEVVPFLTKLSNQLSSCHISGDDQNIQKNVRRLKETVKKLGESGEIKAIGELDLLFMSLRNACV
rate of hepatic regeneration (BrdU incorporation) (liver regeneration): rescued | rate of hepatic regeneration (BrdU incorporation) (liver regeneration; listed as recombinant IL-22): impressively restored; also recorded: rescues

B2: recombinant M-CSF: recombinant murine M-CSF (R&D) (protein, UniProt P07141 33-552, looked up)
Macrophage colony-stimulating …: KEVSEHCSHMIGNGHLKVLQQLIDSQMETSCQIAFEFVDQEQLDDPVCYLKKAFFLVQDIIDETMRFKDNTPNANATERLQELSNNLNSCFTKDYEEQNKACVRTFHETPLQLLEKIKNFFNETKNLLEKDWNIFTKNCNNSFAKCSSRDVVTKPDCNCLYPKATPSSDPASASPHQPPAPSMAPLAGLAWDDSQRTEGSSLLPSELPLRIEDPGSAKQRPPRSTCQTLESTEQPNHGDRLTEDSQPHPSAGGPVPGVEDILESSLGTNWVLEEASGEASEGFLTQEAKFSPSTPVGGSIQAETDRPRALSASPFPKSTEDQKPVDITDRPLTEVNPMRPIGQTQNNTPEKTDGTSTLREDHQEPGSPHIATPNPQRVSNSATPVAQLLLPKSHSWGIVLPLGELEGKRSTRDRRSPAELEGGSASEGAARPVARFNSIPLTDTGHVEQHEGSSDPQIPESVFHLLVPGIILVLLTVGGLLFYKWKWRSHRDPQTLDSSVGRPEDSSLTQDEDRQVELPV
MCP-1 and TNF-a expression (macrophages; macrophages in vitro, cell-culture supernatant, FIG. 7F): upregulated | CD14 expression (macrophages; macrophages treated with recombinant M-CSF, FIG. 7E): increased | LPS-mediated sepsis (serum IL-6, core body temperature) (LPS-induced endotoxemia): exacerbated
